Among the data in publication PMC3458545 (Nucleic Acids Research, 2012) are binding result and Kd values, retold here.

For one series, the target named is T1, RecQL4_N54 (human (Homo sapiens), UniProt O94761 1-54).
T1 sequence: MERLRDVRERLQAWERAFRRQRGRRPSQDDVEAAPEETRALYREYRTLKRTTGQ
The experiment in a line: EMSA. Background: Mobility shift assays separate free from complexed probe on a gel.

Series [1] concerns the target GST-TopBP1 (a.a. 1233–1522) (human, UniProt Q92547 1233-1522). The experiment in a line: SPR. (In SPR one partner is held on a chip, and binding of the other changes the refractive index at the surface.)

Sequence of GST-TopBP1 (a.a. 1233–1522) (Q92547 1233-1522): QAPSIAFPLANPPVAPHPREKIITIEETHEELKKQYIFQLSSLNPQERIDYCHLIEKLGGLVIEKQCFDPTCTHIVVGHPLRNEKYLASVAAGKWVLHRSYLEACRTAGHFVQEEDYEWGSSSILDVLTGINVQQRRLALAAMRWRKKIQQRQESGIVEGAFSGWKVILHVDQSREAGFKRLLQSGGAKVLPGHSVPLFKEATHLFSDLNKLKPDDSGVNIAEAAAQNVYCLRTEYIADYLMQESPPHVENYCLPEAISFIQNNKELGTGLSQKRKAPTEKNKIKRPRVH

B1: M2-M4 Y (mixed)
DNA 1: GCTTGCATGCCTGCAGGCCAGCCTCAATCTCATC
DNA 2: ATCCTCTCTAGAGTCGACCTGCAGGCATGCAAGC
As to B1, in the series with RecQL4_N54, the binding result is “binds”.

B2: S4-M3 Y (mixed)
DNA 1: ATCCTCTCTAGAGTCAAGGTCGGAGTTAGAGTAG
DNA 2: CTACTCTAACTCCGACCGCTTGCATGCCTGCAGG
In the case of B2, the binding result with RecQL4_N54 is “binds”.

B3: RecQL4_N54 (domain or fragment, human)
chain: GSMERLRDVRERLQAWERAFRRQRGRRPSQDDVEAAPEETRALYREYRTLKRTTGQ
On to B3, for which the Kd in series [1] is approximately 70 µM.

The term Kd denotes a measure of binding affinity in units of concentration.
